Measured values published in patent US8318172B2, “Breaking immunological tolerance with a genetically encoded unnatural amino acid” (The Scripps Research Institute, priority 2008, dated 2012).

Columns and labels:
[1] = target: T1, WT mRBP4 (Mus musculus, UniProt Q00724); assay: Immunization of mice with mRBP4 variants (RIMMS), serum IgG titers by ELISA; assay type: in vivo; details: Bcl2 mice (FIG. 19), C57BL/6 mice (FIG. 26), RIMMS protocol
T1 construct: The cDNA encoding murine RBP4 (aa 19-201); made in house; host or cells: E. coli BL21(DE3)
Procedure: 30 μl of 0.5 μg/ml protein was used to coat the wells of Maxisorp 384-well plates (Nunc, Rochester, N.Y.) overnight at 4° C. After washing with PBS+0.05% Tween 20 (PBST), the coated plates were blocked with 80 μl of 1% BSA in PBS, and washed again with PBST. The plates were sequentially incubated with 20 μl of primary antibody or serum diluted in 1% BSA in PBS, 20 μl of HRP-conjugated goat anti-mouse IgG or anti-mouse IgM (Jackson ImmunoResearch Laboratories, West Grove, Pa.), and 20 μl of TMB substrate (KPL, Gaithersburg, Md.), and read at an absorbance of 650 nm. Between incubations, the plates were washed at least six times with PBST.
Before measurement, serum samples were diluted 1:1,000 with 1% BSA in PBS buffer.

[2] = TR-FRET retinol binding assay of mRBP4 proteins; details: retinol binding affinities of mRBP4 proteins
Procedure: The binding affinities of mRBP4 proteins were determined by a TR-FRET retinol binding assay.
WT and pNO2Phe mRBP4 mutant proteins were labeled with biotin using the Sulfo-NHS-Biotin kit (Pierce, Rockford, Ill.) according to manufacturer instructions. For determination of retinol binding activity, 10 nM biotin-labeled RBP4 was mixed with 1 nM Streptavidin-Europium chelate (LANCE® Eu-W8044 Streptavidin, Perkin Elmer, Foster City, Calif.). Increasing concentrations of Cy5-labeled retinol were added to the reaction and retinol binding was assessed by homogeneous time-resolved fluorescence resonance energy transfer (TR-FRET).

In the case of “WT mRBP4: wild-type murine retinol binding protein 4, N-terminal His6-tagged, expressed in E. coli”, the “serum IgG titers against WT mRBP4” value [1] is reported as “insignificant serum IgG titers” and the Kd [2] is reported as 171 nM.
